Data as given in article PMC11169541 (2024).

Tests used:
[1] = target: T1, SARS-CoV N protein (nucleocapsid) peptide on HLA-A*02:01 (human); test: multimer staining
T1 peptide: RTATKQYNV

[2] = target: T2, SARS-CoV-2 N protein (nucleocapsid) peptide on HLA-A*02:01 (human); test: multimer staining
T2 peptide: RTATKAYNV

B1: TCR-4 (TCR)
alpha TRAV17*01 TRAJ27*01 CDR3: CATDEDTNAGKSTF
beta TRBV4-1*01 TRBJ1-1*01 CDR3: CASSPDPWGVDTEAFF
binding result [1]: no recognition | binding result [2]: recognises

B2: TCR-2 (TCR)
alpha TRAV4*01 TRAJ34*01 CDR3: CLVGDVDTDKLIF
beta TRBV20-1*05 TRBJ1-6*01 CDR3: CSASHPGDSPLHF
binding result [1]: no recognition | binding result [2]: recognises
